Assays:
human MSLN (mesothelin) = human MSLN (mesothelin) (human, UniProt Q13421 37-598); experiment: cell-based or functional assay
[1] = target: human CDH3 (Cadherin-3, P-Cadherin) (human, UniProt P22223 108-829); experiment: cell-based or functional assay
human CDH3 [2] = target: T1, human CDH3 (human, UniProt P22223 108-829); experiment: cell-based or functional assay
cyno MSLN = target: T2, cyno MSLN (cyno); experiment: cell-based affinity, flow cytometry on target-transfected CHO cells, nonlinear regression (one site - specific binding), mean of three measurements
T2 construct: whole, on cells; On transfected CHO cells; also called cy MSLN
Description: (§1) Cell-based affinity of CDH3 MSLN dual targeting antigen-binding molecules was determined by nonlinear regression (one site—specific binding) analysis. CHO cells expressing human CDH3, cyno CDH3, human MSLN or cyno MSLN were incubated with decreasing concentrations of CDH3 MSLN dual targeting antigen-binding molecules (12.5 nM on CDH3 cell lines, 800 nM on MSLN cell lines, step 1:2, 11 steps) for 16 h at 4° ° C. Bound CDH3 MSLN dual targeting antigen-binding molecules were detected with Alexa Fluor 488-conjugated AffiniPure Fab Fragment Goat Anti-Human IgG (H+L). Fixed cells were stained with DRAQ5, Far-Red Fluorescent Live-Cell Permeant DNA Dye and signals were detected by fluorescence cytometry. Respective equilibrium dissociation constant (Kd) values were calculated with the one site—specific binding evaluation tool of the GraphPad Prism software. Mean Kd values and affinity gaps were calculated with Microsoft Excel.
(§2) Cell-based affinities of CDH3 MSLN dual targeting antigen-binding molecules on target-transfected CHO cells were determined by nonlinear regression (one site - specific binding) analysis. Mean Kd values were calculated from three independent measurements. Affinity gaps were determined by dividing the cyno Kd by the human Kd.

human CDH3 [3] = target: T1, human CDH3; experiment: as above
Description: as §1, §2

cyno CDH3 = target: T3, cyno CDH3 (cyno); experiment: as above
T3 construct: whole, on cells; On transfected CHO cells; also called cy CDH3
Description: as §1, §2

human CDH3 [4] = target: T1, human CDH3; experiment: cell-based or functional assay; remark: listed apart in the source

Binder	cytotoxicity EC50, GSU KO CDH3 cells (human MSLN (mesothelin))	cytotoxicity EC50, GSU KO MSLN cells [1]	EC50 (cytotoxicity) on double positive cells; column head printed 'EC50 CHO hu CDH3 (+) & MSLN (+)'; value is that of HCT 116 wt in Table 46 (human CDH3 [2])	EC50 (cytotoxicity); column head printed 'EC50 CHO hu MSLN (+)', table title HCT 116; value is that of HCT 116 KO MSLN in Table 46 (human CDH3 [2])	fold gap of column 2 (HCT 116 KO MSLN by Table 46) against double positive cells (human CDH3 [2])	Kd (cyno MSLN)	Kd (human CDH3 [3])	Kd (cyno CDH3)	EC50 on HCT 116 KO MSLN (cytotoxicity; cells CDH3+, MSLN-) (human CDH3 [4])	EC50 on HCT 116 wt (cytotoxicity; cells CDH3+, MSLN+) (human CDH3 [4])
MS 15-B12 CC × 6H10.09 × (G4) × heFc (A) * heFc (B) × (G4) × CH3 15-E11 CC × 6H10.09 (bispecific antibody) chain 1: not shown chain 2: DKTHTCPPCPAPELLGGPSVFLFPPKPKDTLMISRTPEVTCVVVDVSHEDPEVKFNWYVDGVEVHNAKTKPCEEQYGSTYRCVSVLTVLHQDWLNGKEYKCKVSNKALPAPIEKTISKAKGQPREPQVYTLPPSRKEMTKNQVSLTCLVKGFYPSDIAVEWESNGQPENNYKTTPPVLKSDGSFFLYSKLTVDKSRWQQGNVFSCSVMHEALHNHYTQKSLSLSPGKGGGGQVQLVQSGAEVKKPGASVKVSCKASGYTFTNYWMNWVRQAPGQCLEWMGNIAYGVKGTNYNQKFQGRVTMTVDTSSSTAYMELSRLRSDDTAVYYCATRYFYVMDYWGQGTLVTVSSGGGGSGGGGSGGGGSDIQMTQSPSSLSASVGDRVTITCRASQDISNYLNWYQQKPGKVPKLLIYYTSRLHSGVPSRFSGSGSGTDFTLTISSLQPEDVATYYCVQYAQFPLTFGCGTKVEIKSGGGGSEVQLVESGGGLVQPGGSLKLSCAASGFTFNKYAMNWVRQAPGKGMEWVARIRSKYNNYATYYADAVKDRFTISRDDSKNTLYLQMNNLKTEDTAVYYCVRAGNFGSSYISYFAYWGQGTLVTVSSGGGGSGGGGSGGGGSQTVVTQEPSLTVSPGGTVTITCGSSTGAVTSGNYPNWIQKKPGQAPRGLIGGTKFLAPGTPARFSGSLEGGKAALTLSGVQPEDEAEYYCVLYYSNRWVFGSGTKLTVL	391 pM	533 pM								
CH3 15-E11 CC × I2L × G4 × scFc × G4 × MS 15-B12 CC × I2L_GQ (bispecific antibody, Single chain: CDH3 scFv - CD3 scFv (I2L) - scFc - MSLN scFv - CD3 scFv (I2L)) QVQLVQSGAEVKKPGASVKVSCKASGYTFTNYWMNWVRQAPGQCLEWMGNIAYGVKGTNYNQKFQGRVTMTVDTSSSTAYMELSRLRSDDTAVYYCATRYFYVMDYWGQGTLVTVSSGGGGQGGGGQGGGGQDIQMTQSPSSLSASVGDRVTITCRASQDISNYLNWYQQKPGKVPKLLIYYTSRLHSGVPSRFSGSGSGTDFTLTISSLQPEDVATYYCVQYAQFPLTFGCGTKVEIKSGGGGQEVQLVESGGGLVQPGGSLKLSCAASGFTFNKYAMNWVRQAPGKGMEWVARIRSKYNNYATYYADAVKDRFTISRDDSKNTLYLQMNNLKTEDTAVYYCVRAGNFGSSYISYFAYWGQGTLVTVSSGGGGQGGGGQGGGGQQTVVTQEPSLTVSPGGTVTITCGSSTGAVTSGNYPNWIQKKPGQAPRGLIGGTKFLAPGTPARFSGSLEGGKAALTLSGVQPEDEAEYYCVLYYSNRWVFGSGTKLTVLGGGGCPPCPAPELLGGPSVFLFPPKPKDTLMISRTPEVTCVVVDVSHEEPEVKFNWYVDGVEVHNAKTKPCEEQYGSTYRCVSVLTVLHQDWLNGKEYKCKVSNKALPAPIEKTISKAKGQPREPQVYTLPPSREEMTKNQVSLTCLVKGFYPSDIAVEWESNGQPENNYKTTPPVLDSDGSFFLYSKLTVDKSRWQQGNVFSCSVMHEALHNHYTQKSLSLSPGKGGGGQGGGGQGGGGQGGGGQGGGGQGGGGQCPPCPAPELLGGPSVFLFPPKPKDTLMISRTPEVTCVVVDVSHEEPEVKFNWYVDGVEVHNAKTKPCEEQYGSTYRCVSVLTVLHQDWLNGKEYKCKVSNKALPAPIEKTISKAKGQPREPQVYTLPPSREEMTKNQVSLTCLVKGFYPSDIAVEWESNGQPENNYKTTPPVLDSDGSFFLYSKLTVDKSRWQQGNVFSCSVMHEALHNHYTQKSLSLSPGKGGGGQVQLQESGPGLVKPSETLSLTCTVSGGSISSSSYFWGWIRQPPGKCLEWIGNIYYSGSSNYNPSLKSRVTISVDTSKNQFSLKLSSVTAADTAVYYCARLPRGDRDAFDIWGQGTMVTVSSGGGGQGGGGQGGGGQDIVMTQSPSSLSASVGDRVTITCRASQGISNYLAWYQQKPGKVPKLLIYAASTLQSGVPSRFSGSGSGTDFTLTISSLQPEDFATYYCQQSYSTPFTFGCGTKVEIKSGGGGQEVQLVESGGGLVQPGGSLKLSCAASGFTFNKYAMNWVRQAPGKGMEWVARIRSKYNNYATYYADAVKDRFTISRDDSKNTLYLQMNNLKTEDTAVYYCVRAGNFGSSYISYFAYWGQGTLVTVSSGGGGQGGGGQGGGGQQTVVTQEPSLTVSPGGTVTITCGSSTGAVTSGNYPNWIQKKPGQAPRGLIGGTKFLAPGTPARFSGSLEGGKAALTLSGVQPEDEAEYYCVLYYSNRWVFGSGTKLTVL			0.071 pM	8.7 pM	122 fold	51400 pM	160 pM	190 pM	8.7 pM	0.07 pM
CH3 15-E11_1_VAG_CC × I2L × G4 × scFc × G4 × MS 15-B12 CC × I2L clipopt_DI (bispecific antibody, Single chain) QVQLVQSGAEVKKPGASVKVSCKASGYTFTNYWMNWVRQAPGQCLEWMGNIAYGVAGTNYNQKFQGRVTMTVDTSSSTAYMELSRLRSDDTAVYYCATRYFYVMDYWGQGTLVTVSSGGGGQGGGGQGGGGQDIQMTQSPSSLSASVGDRVTITCRASQDISNYLNWYQQKPGKVPKLLIYYTSRLHSGVPSRFSGSGSGTDFTLTISSLQPEDVATYYCVQYAQFPLTFGCGTKVEIKSGGGGQEVQLVESGGGLVQPGGSLKLSCAASGFTFNKYAMNWVRQAPGKGMEWVARIRSKYNNYATYYADAVKDRFTISRDDSKNTLYLQMNNLKTEDTAVYYCVRAGNFGSSYISYFAYWGQGTLVTVSSGGGGQGGGGQGGGGQQTVVTQEPSLTVSPGGTVTITCGSSTGAVTSGNYPNWIQKKPGQAPRGLIGGTKFLAPGTPARFSGSLEGGKAALTLSGVQPEDEAEYYCVLYYSNRWVFGSGTKLTVLGGGGCPPCPAPELLGGPSVFLFPPKPKDTLMISRTPEVTCVVVDVSHEEPEVKFNWYVDGVEVHNAKTKPCEEQYGSTYRCVSVLTVLHQDWLNGKEYKCKVSNKALPAPIEKTISKAKGQPREPQVYTLPPSREEMTKNQVSLTCLVKGFYPSDIAVEWESNGQPENNYKTTPPVLDSDGSFFLYSKLTVDKSRWQQGNVFSCSVMHEALHNHYTQKSLSLSPGKGGGGQGGGGQGGGGQGGGGQGGGGQGGGGQCPPCPAPELLGGPSVFLFPPKPKDTLMISRTPEVTCVVVDVSHEEPEVKFNWYVDGVEVHNAKTKPCEEQYGSTYRCVSVLTVLHQDWLNGKEYKCKVSNKALPAPIEKTISKAKGQPREPQVYTLPPSREEMTKNQVSLTCLVKGFYPSDIAVEWESNGQPENNYKTTPPVLDSDGSFFLYSKLTVDKSRWQQGNVFSCSVMHEALHNHYTQKSLSLSPGKGGGGQVQLQESGPGLVKPSETLSLTCTVSGGSISSSSYFWGWIRQPPGKCLEWIGNIYYSGSSNYNPSLKSRVTISVDTSKNQFSLKLSSVTAADTAVYYCARLPRGDRDAFDIWGQGTMVTVSSGGGGQGGGGQGGGGQDIVMTQSPSSLSASVGDRVTITCRASQGISNYLAWYQQKPGKVPKLLIYAASTLQSGVPSRFSGSGSGTDFTLTISSLQPEDFATYYCQQSYSTPFTFGCGTKVEIKSGGGGQEVQLVESGGGLVQPGGSLKLSCAASGFTFNKYAMNWVRQAPGKGMEWVARIRSKYNNYATYYADAVKDRFTISRDDSKNTLYLQMNNLKTEDTAVYYCVRAGNFGSSYISYFAYWGQGTLVTVSSGGGGQGGGGQGGGGQQTVVTQEPSLTVSPGGTVTITCGSSTGAVTSGNYPNWIQKKPGQAPRGLIGGTKFLAPGTPARFSGSLEGGKAALTLSGVQPEDEAEYYCVLYYSNRWVFGSGTKLTVL						50300 pM	510 pM	570 pM		
